Experimental findings from patent US20240352156A1 (BIOGRAPH 55, published 2024) are described below.

For test [1], the target named is T1, CD38 (antigen in solution, Octet assays) (human, UniProt P28907 43-300, limits assumed).
T1 construct: also called Cluster of Differentiation 38; ADPRC1
Briefly: BLI (OctetRed96), antibody on anti-hIgG Fc capture sensor.
Method: (§1) The binding affinities of parental and bispecific antibodies were determined using bio-layer interferometry. Binding experiments were performed on OctetRed96 at 25° C. using an assay Buffer consisting of 0.1% BSA, 1×PBS, 0.02% Tween-20, 0.05% NaN3. The antibodies were loaded onto Anti-hIgGFc Capture biosensors for 300 seconds. The ligand-loaded sensors were dipped into a series dilution (starting at 300 nM: two-fold series dilution for CD19 and three-fold series dilution for CD38) of the antigens for association (200 seconds for CD19 and 150 seconds for CD38) followed by dissociation (600 seconds for CD19 and 400 seconds for CD38). Kinetic constants were calculated using a monovalent (1:1) binding model.

Test [2] concerns the target T2, CD38 on cells (CD38-transfected HEK293, Daudi, REH) (human, UniProt P28907 1-300).
T2 construct: whole, on cells; also called HEK293-CD38
The test can be described thus: flow cytometry on CD38-transfected HEK293 cells, MFI against test article concentration. (A flow cytometer gives signals particle by particle.)

Test [3] concerns the target T3, CD19 (antigen in solution, Octet assays) (human, UniProt P15391 20-291, limits assumed).
T3 construct: also called Cluster of Differentiation 19; B4
T3 sequence (looked up): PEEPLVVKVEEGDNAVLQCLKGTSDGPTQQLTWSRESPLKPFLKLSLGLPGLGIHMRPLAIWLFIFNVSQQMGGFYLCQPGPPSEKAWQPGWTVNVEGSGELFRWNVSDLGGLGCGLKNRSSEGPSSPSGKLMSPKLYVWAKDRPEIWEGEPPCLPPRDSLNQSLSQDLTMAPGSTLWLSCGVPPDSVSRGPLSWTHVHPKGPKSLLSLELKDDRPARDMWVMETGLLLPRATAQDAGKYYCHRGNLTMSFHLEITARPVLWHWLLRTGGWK
Briefly: BLI (OctetRed96), antibody on anti-hIgG Fc capture sensor.
Method: as §1

B1: 851A = anti-CD19 3C10 (antibody, V domains shown)
VH: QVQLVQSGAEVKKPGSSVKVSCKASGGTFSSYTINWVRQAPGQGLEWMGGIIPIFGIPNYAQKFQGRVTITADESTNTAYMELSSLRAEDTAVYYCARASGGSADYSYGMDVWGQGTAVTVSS
VL: DIQMTQSPSSLSASVGDRVTITCRASQGISSWLAWYQQKPEKAPKSLIYAASSLQSGVPSRFSGSGSGTDFTLTISSLQPEDFATYYCQQYKRYPYTFGQGTKLEIKR
notes: captured by anti-human IgG Fc
As to B1, the binding result in test [1] is “no binding (tested: antigen dilutions starting at 300 nM)”; in test [2], “no binding (tested: 133 nM)”.

B2: 851C = anti-CD38 003 heavy chain & anti-CD19 3C10 light chain (antibody, V domains shown)
VH: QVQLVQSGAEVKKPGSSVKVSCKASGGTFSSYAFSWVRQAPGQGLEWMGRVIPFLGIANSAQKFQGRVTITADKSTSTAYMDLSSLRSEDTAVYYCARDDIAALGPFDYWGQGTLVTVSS
VL: DIQMTQSPSSLSASVGDRVTITCRASQGISSWLAWYQQKPEKAPKSLIYAASSLQSGVPSRFSGSGSGTDFTLTISSLQPEDFATYYCQQYKRYPYTFGQGTKLEIKR
Consider B2, for which the binding result in test [3] is recorded as “no binding (tested: antigen dilutions starting at 300 nM)”.
